# B1: ZNF263 (parent)
# chain: PEASHLRFRRFRFQEAAGPREALS
# Variants of: B1
# Test: protein stability index of a GFP-peptide fusion (GPS, HEK-293T) (PSI 1-6); higher = more stable
# Settings: c terminus: a fixed tail appended
# 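Note: lentivirally expressed fusions sorted by FACS into six bins by GFP to DsRed ratio, PSI derived from sequencing read proportions per bin multiplied by bin number.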
row,Variant,protein stability index
1,A16T,2.11
2,A16V,2.31
3,A16R,2.88
4,A16M,2.15
5,A16E,2.36
6,A16I,2.85
7,A16L,2.57
8,A16H,3
9,A16Y,2.1
10,A16P,3.25
11,A16W,2.65
12,A16K,2.61
13,A16C,2.19
14,A16G,2.43
15,A16N,2.69
16,A16S,3.54
17,A16F,1.59
18,A16D,2.99
19,A22V,2.15
20,A22I,2.28
21,A22P,3.7
22,A22K,2.77
23,A22M,2.37
24,A22Q,2.78

row,Variant,protein stability index
1,A22N,2.87
2,A22W,2.03
3,A22G,2.98
4,A22S,2.77
5,A22D,3.38
6,A22L,2.51
7,A22E,3.15
8,A22H,2.57
9,A22Y,2.29
10,A22F,2.6
11,A22T,2.74
12,A22C,2.65
13,A22R,2.8
14,S24A,2.28
15,S24D,3.06
16,S24C,2.42
17,E21A,2.56
18,E21D,2.54
19,E21Q,3.03
20,E21S,2.74
21,E21F,2.34
22,E21M,2.98
23,E21V,1.85
24,E21P,2.89

row,Variant,protein stability index
1,E21R,2.87
2,E21T,2.66
3,E21N,2.71
4,E21K,2.45
5,E21Y,2.58
6,E21G,2.4
7,E21H,2.84
8,E21W,2.01
9,E21C,2.14
10,E21I,2.04
11,E21L,2.41
12,L23I,2.48
13,L23V,2.93
14,L23G,3.04
15,L23R,3.11
16,L23P,2.9
17,L23M,2.45
18,L23Y,1.71
19,L23W,1.91
20,L23A,3.44
21,L23S,3.28
22,L23H,3.05
23,L23F,2.58
24,L23D,3.75

row,Variant,protein stability index
1,L23T,2.84
2,L23N,3.15
3,L23C,2.7
4,L23K,3.35
5,L23Q,2.97
6,L23E,3.5
7,A17E,3.34
8,A17M,2.1
9,A17C,2.14
10,A17P,2.55
11,A17Y,2.04
12,A17V,2.55
13,A17N,2.78
14,A17S,2.54
15,A17T,2.61
16,A17D,3.42
17,A17F,1.88
18,A17Q,2.75
19,A17L,2.21
20,A17W,2.69
21,A17G,2.58
22,A17H,2.33
23,A17K,2.94
24,A17I,2.15

row,Variant,protein stability index
1,A17R,2.15
2,G18R,2.65
3,G18M,2.7
4,G18L,2.21
5,G18K,2.84
6,G18W,1.88
7,G18S,2.96
8,G18C,2.67
9,G18F,2.26
10,G18H,2.98
11,G18N,2.83
12,G18D,2.64
13,G18Q,2.81
14,G18V,2.38
15,G18E,3.44
16,G18P,3.36
17,G18T,2.97
18,G18Y,2.14
19,G18I,2.35
20,G18A,2.27
21,R20Y,1.49
22,R20V,2.65
23,R20M,2.21
24,R20Q,2.7

row,Variant,protein stability index
1,R20K,2.38
2,R20G,2.25
3,R20P,2.24
4,R20W,1.49
5,R20S,2.58
6,R20H,2.4
7,R20D,2.9
8,R20L,2.29
9,R20F,1.62
10,R20I,2.48
11,R20N,2.99
12,R20C,2.21
13,R20T,2.65
14,R20A,3.17
15,R20E,3.35
16,E15N,2.68
17,E15V,2.12
18,E15R,1.98
19,E15T,2.74
20,E15P,2.32
21,E15H,2.04
22,E15I,1.78
23,E15M,2.38
24,E15K,2.04

row,Variant,protein stability index
1,E15W,2.15
2,E15Y,2.05
3,E15S,2.54
4,E15L,2.02
5,P19G,3.11
6,P19R,2.71
7,P19Q,3.18
8,P19T,3.26
9,P19D,2.8
10,P19E,3.39
11,P19F,1.76
12,P19A,2.71
13,P19L,1.95
14,P19H,2.73
15,P19V,2.21
16,P19N,2.63
17,P19S,2.87
18,P19W,2.04
19,P19K,2.73
20,P19Y,1.69
21,P19M,2.8
22,P19C,2.21
23,P19I,2.04

# From the supplement of paper PMC10567573
